# Measured values as given in article PMC6819594, “Screening antiproliferative drug for breast cancer from bisbenzylisoquinoline alkaloid tetrandrine and fangchinoline derivatives by targeting BLM helicase” (BMC Cancer, 2019).
# Biological target: BLM642-1290 helicase (UniProt P54132 642-1290)
# Test: fluorescence anisotropy; mitomycin C (no significant effect); 20 mM Tris pH 7.9, 25 mM NaCl, 3 mM MgCl2, 0.1 mM DTT; EMSA at room temperature 45 min; FP temperature not stated
# Settings: protein: recombinant; label: 3' fluorescein (FAM) on strand 2; 3' overhang 24 nt on strand 1; 21 bp duplex
# Chain of BLM642-1290 helicase (P54132 642-1290): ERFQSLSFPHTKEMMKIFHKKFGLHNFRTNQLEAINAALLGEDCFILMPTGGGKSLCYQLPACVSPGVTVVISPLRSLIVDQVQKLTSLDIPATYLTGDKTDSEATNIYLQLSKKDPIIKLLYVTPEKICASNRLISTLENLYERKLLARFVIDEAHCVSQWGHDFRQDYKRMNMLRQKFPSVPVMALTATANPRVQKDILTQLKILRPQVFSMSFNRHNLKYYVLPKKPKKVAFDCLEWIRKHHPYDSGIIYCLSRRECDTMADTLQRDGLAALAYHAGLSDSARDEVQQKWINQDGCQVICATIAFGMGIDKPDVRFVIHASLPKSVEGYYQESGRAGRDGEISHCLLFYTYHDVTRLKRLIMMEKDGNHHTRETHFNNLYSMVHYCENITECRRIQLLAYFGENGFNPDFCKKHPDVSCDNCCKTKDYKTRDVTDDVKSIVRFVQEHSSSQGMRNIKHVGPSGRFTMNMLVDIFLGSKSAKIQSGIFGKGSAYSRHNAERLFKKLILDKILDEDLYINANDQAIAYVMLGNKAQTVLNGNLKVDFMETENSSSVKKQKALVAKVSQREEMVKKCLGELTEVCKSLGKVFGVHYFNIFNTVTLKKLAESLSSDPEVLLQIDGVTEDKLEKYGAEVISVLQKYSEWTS
binder,measurement,value
dsDNA A1A2 (dsDNA) DNA 1: AATCCGTCGAGCAGAGTTAGGTTAGGTTAGGTTAGTTTTTTTTTT DNA 2: CCTAACTCTGCTCGACGGATT,binding result,binds
